Experiments:
[1] = test system: HeLa Kyoto; experiment: solubility change mitosis vs G1/S (difference of NP-40 vs SDS log2 ratios) (log2 ratio difference); higher = more soluble in mitosis
[2] = test system: HeLa Kyoto; experiment: thermal stability score vs G1/S (z-score of summed log2 fold changes over temperatures); higher = more thermally stable than in G1/S
[3] = test system: HeLa Kyoto; experiment: solubility in G1/S (NP-40 vs SDS abundance) (log2 ratio); higher = more soluble; conditions: cell cycle stage: G1/S
[4] = test system: HeLa Kyoto; experiment: melting temperature (median over replicates), in situ; higher = more thermally stable
[5] = cell cycle stage: early G1 (4.5 h after nocodazole release)
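Wherever melting temperature (median over replicates), in situ is given: HeLa Kyoto cells synchronized by double thymidine or nocodazole block, proteins quantified by TMT10plex mass spectrometry, three independent biological replicates.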
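Wherever solubility change mitosis vs G1/S (difference of NP-40 vs SDS log2 ratios) is given: synchronized HeLa Kyoto cells (double thymidine block for G1/S, nocodazole release for mitosis), protein amounts in NP-40 versus SDS lysates quantified by mass spectrometry, three biological replicates.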
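Wherever solubility in G1/S (NP-40 vs SDS abundance) is given: HeLa Kyoto cells arrested at G1/S by double thymidine block, proteins quantified by TMT10plex mass spectrometry in mild NP-40 versus SDS extracts, three biological replicates.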
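Wherever thermal stability score vs G1/S (z-score of summed log2 fold changes over temperatures) is given: synchronized HeLa Kyoto cells, proteins quantified by TMT10plex mass spectrometry, three biological replicates, mitosis taken 0.5 h after nocodazole release, G1/S directly after double thymidine block.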

PDCD10, sequence (chain, as listed by the source): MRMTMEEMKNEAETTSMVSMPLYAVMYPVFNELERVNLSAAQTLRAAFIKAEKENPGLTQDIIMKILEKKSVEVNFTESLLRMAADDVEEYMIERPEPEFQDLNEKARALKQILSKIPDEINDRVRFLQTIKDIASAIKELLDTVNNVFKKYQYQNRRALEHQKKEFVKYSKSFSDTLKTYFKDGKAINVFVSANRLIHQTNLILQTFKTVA
CDK16, sequence (chain, as listed by the source): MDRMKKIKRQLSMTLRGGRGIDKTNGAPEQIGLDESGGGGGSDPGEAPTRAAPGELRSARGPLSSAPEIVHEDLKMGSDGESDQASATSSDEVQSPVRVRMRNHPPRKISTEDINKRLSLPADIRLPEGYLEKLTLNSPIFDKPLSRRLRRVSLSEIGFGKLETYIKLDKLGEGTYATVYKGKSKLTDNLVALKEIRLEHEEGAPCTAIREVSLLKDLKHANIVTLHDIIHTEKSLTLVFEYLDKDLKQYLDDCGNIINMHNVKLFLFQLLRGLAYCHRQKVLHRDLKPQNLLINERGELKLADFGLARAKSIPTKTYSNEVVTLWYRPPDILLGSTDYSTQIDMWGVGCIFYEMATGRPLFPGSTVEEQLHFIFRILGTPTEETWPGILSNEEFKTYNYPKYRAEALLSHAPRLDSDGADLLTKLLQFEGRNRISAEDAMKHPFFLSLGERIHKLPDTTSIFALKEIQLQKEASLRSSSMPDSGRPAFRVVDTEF

Substance | solubility change mitosis (log2) [1] | thermal stability score [2, 5] | thermal stability score ([2]; cell cycle stage: mitosis) | solubility in G1/S (log2) [3] | melting temperature ([4]; cell cycle stage: G1/S) [°C] | melting temperature ([4]; cell cycle stage: mitosis) [°C]
MTKREAEELIEIEIDGTEKAECTEESIVEQTYAPAECVSQAIDINEPIGNLKKLLEPRLQCSLDAHEICLQDIQLDPERSLFDQGVKTDGTVQLSVQVISYQGIEPKLNILEIVKPADTVEVVIDPDAHHAESEAHLVEEAQVITLDGTKHITTISDETSEQVTRWAAALEGYRKEQERLGIPYDPIQWSTDQVLHWVVWVMKEFSMTDIDLTTLNISGRELCSLNQEDFFQRVPRGEILWSHLELLRKYVLASQEQQMNEIVTIDQPVQIIPASVQSATPTTIKVINSSAKAAKVQRAPRISGEDRSSPGNRTGNNGQIQLWQFLLELLTDKDARDCISWVGDEGEFKLNQPELVAQKWGQRKNKPTMNYEKLSRALRYYYDGDMICKVQGKRFVYKFVCDLKTLIGYSAAELNRLVTECEQKKLAKMQLHGIAQPVTAVALATASLQTEKDN [GABPA] | -0.178 | 0.986 | 1.79 | 0.0182 | 48 | 49.9
MSRQNLVALTVTTLLGVAVGGFVLWKGIQRRRRSKTSPVTQQPQQKVLGSRELPPPEDDQLHSSAPRSSWKERILKAKVVTVSQEAEWDQIEPLLRSELEDFPVLGIDCEWVNLEGKASPLSLLQMASPSGLCVLVRLPKLICGGKTLPRTLLDILADGTILKVGVGCSEDASKLLQDYGLVVRGCLDLRYLAMRQRNNLLCNGLSLKSLAETVLNFPLDKSLLLRCSNWDAETLTEDQVIYAARDAQISVALFLHLLGYPFSRNSPGEKNDDHSSWRKVLEKCQGVVDIPFRSKGMSRLGEEVNGEATESQQKPRNKKSKMDGMVPGNHQGRDPRKHKRKPLGVGYSARKSPLYDNCFLHAPDGQPLCTCDRRKAQWYLDKGIGELVSEEPFVVKLRFEPAGRPESPGDYYLMVKENLCVVCGKRDSYIRKNVIPHEYRKHFPIEMKDHNSHDVLLLCTSCHAISNYYDNHLKQQLAKEFQAPIGSEEGLRLLEDPERRQVRSGARALLNAESLPTQRKEELLQALREFYNTDVVTEEMLQEAASLETRISNENYVPHGLKVVQCHSQGGLRSLMQLESRWRQHFLDSMQPKHLPQQWSVDHNHQKLLRKFGEDLPIQLS [EXD2] | -0.0547 | 0.38 | 0.455 | 0.113 | 49.7 | 49.6
MICAL3 | -0.0995 | -0.909 | -0.953 | -0.213 | 51.4 | 50.5
MIIYRDLISHDEMFSDIYKIREIADGLCLEVEGKMVSRTEGNIDDSLIGGNASAEGPEGEGTESTVITGVDIVMNHHLQETSFTKEAYKKYIKDYMKSIKGKLEEQRPERVKPFMTGAAEQIKHILANFKNYQFFIGENMNPDGMVALLDYREDGVTPYMIFFKDGLEMEKC [TPT1] | -0.0912 | 0.357 | 0.0736 | 0.476 | 53.5 | 52.9
MILNSLSLCYHNKLILAPMVRVGTLPMRLLALDYGADIVYCEELIDLKMIQCKRVVNEVLSTVDFVAPDDRVVFRTCEREQNRVVFQMGTSDAERALAVARLVENDVAGIDVNMGCPKQYSTKGGMGAALLSDPDKIEKILSTLVKGTRRPVTCKIRILPSLEDTLSLVKRIERTGIAAIAVHGRKREERPQHPVSCEVIKAIADTLSIPVIANGGSHDHIQQYSDIEDFRQATAASSVMVARAAMWNPSIFLKEGLRPLEEVMQKYIRYAVQYDNHYTNTKYCLCQMLREQLESPQGRLLHAAQSSREICEAFGLGAFYEETTQELDAQQARLSAKTSEQTGEPAEDTSGVIKMAVKFDRRAYPAQITPKMCLLEWCRREKLAQPVYETVQRPLDRLFSSIVTVAEQKYQSTLWDKSKKLAEQAAAIVCLRSQGLPEGRLGEESPSLHKRKREAPDQDPGGPRAQELAQPGDLCKKPFVALGSGEESPLEGW [DUS2] | -0.0821 | 0.209 | 0.349 | -0.0157 | 50.3 | 50.9
MVRTKTWTLKKHFVGYPTNSDFELKTAELPPLKNGEVLLEALFLTVDPYMRVAAKRLKEGDTMMGQQVAKVVESKNVALPKGTIVLASPGWTTHSISDGKDLEKLLTEWPDTIPLSLALGTVGMPGLTAYFGLLEICGVKGGETVMVNAAAGAVGSVVGQIAKLKGCKVVGAVGSDEKVAYLQKLGFDVVFNYKTVESLEETLKKASPDGYDCYFDNVGGEFSNTVIGQMKKFGRIAICGAISTYNRTGPLPPGPPPEIVIYQELRMEAFVVYRWQGDARQKALKDLLKWVLEGKIQYKEYIIEGFENMPAAFMGMLKGDNLGKTIVKA [PTGR1] | -0.225 | 0.13 | -1.48 | 0.248 | 53.2 | 53.5
MASSSVPPATVSAATAGPGPGFGFASKTKKKHFVQQKVKVFRAADPLVGVFLWGVAHSINELSQVPPPVMLLPDDFKASSKIKVNNHLFHRENLPSHFKFKEYCPQVFRNLRDRFGIDDQDYLVSLTRNPPSESEGSDGRFLISYDRTLVIKEVSSEDIADMHSNLSNYHQYIVKCHGNTLLPQFLGMYRVSVDNEDSYMLVMRNMFSHRLPVHRKYDLKGSLVSREASDKEKVKELPTLKDMDFLNKNQKVYIGEEEKKIFLEKLKRDVEFLVQLKIMDYSLLLGIHDIIRGSEPEEEAPVREDESEVDGDCSLTGPPALVGSYGTSPEGIGGYIHSHRPLGPGEFESFIDVYAIRSAEGAPQKEVYFMGLIDILTQYDAKKKAAHAAKTVKHGAGAEISTVHPEQYAKRFLDFITNIFA [PIP4K2C] | -0.07 | 0.688 | 2 | 0.315 | 49 | 48.7
MSFIPVAEDSDFPIHNLPYGVFSTRGDPRPRIGVAIGDQILDLSIIKHLFTGPVLSKHQDVFNQPTLNSFMGLGQAAWKEARVFLQNLLSVSQARLRDDTELRKCAFISQASATMHLPATIGDYTDFYSSRQHATNVGIMFRDKENALMPNWLHLPVGYHGRASSVVVSGTPIRRPMGQMKPDDSKPPVYGACKLLDMELEMAFFVGPGNRLGEPIPISKAHEHIFGMVLMNDWSARDIQKWEYVPLGPFLGKSFGTTVSPWVVPMDALMPFAVPNPKQDPRPLPYLCHDEPYTFDINLSVNLKGEGMSQAATICKSNFKYMYWTMLQQLTHHSVNGCNLRPGDLLASGTISGPEPENFGSMLELSWKGTKPIDLGNGQTRKFLLDGDEVIITGYCQGDGYRIGFGQCAGKVLPALLPS [FAH] | -0.0884 | -0.791 | -0.764 | 0.207 | 58.7 | 59
PDCD10 | -0.0258 | 1.11 | 1.24 | 0.326 | 49.2 | 50.7
MDRSAEFRKWKAQCLSKADLSRKGSVDEDVVELVQFLNMRDQFFTTSSCAGRILLLDRGINGFEVQKQNCCWLLVTHKLCVKDDVIVALKKANGDATLKFEPFVLHVQCRQLQDAQILHSMAIDSGFRNSGITVGKRGKTMLAVRSTHGLEVPLSHKGKLMVTEEYIDFLLNVANQKMEENKKRIERFYNCLQHALERETMTNLHPKIKEKNNSSYIHKKKRNPEKTRAQCITKESDEELENDDDDDLGINVTIFPEDY [TYW3] | -0.194 | -0.67 | -1.25 | 0.102 | 55 | 54.9
MAELRVLVAVKRVIDYAVKIRVKPDRTGVVTDGVKHSMNPFCEIAVEEAVRLKEKKLVKEVIAVSCGPAQCQETIRTALAMGADRGIHVEVPPAEAERLGPLQVARVLAKLAEKEKVDLVLLGKQAIDDDCNQTGQMTAGFLDWPQGTFASQVTLEGDKLKVEREIDGGLETLRLKLPAVVTADLRLNEPRYATLPNIMKAKKKKIEVIKPGDLGVDLTSKLSVISVEDPPQRTAGVKVETTEDLVAKLKEIGRI [ETFB] | 0.0272 | -1.74 | -0.806 | 0.362 | 54 | 54.2
MPRVYIGRLSYQARERDVERFFKGYGKILEVDLKNGYGFVEFDDLRDADDAVYELNGKDLCGERVIVEHARGPRRDGSYGSGRSGYGYRRSGRDKYGPPTRTEYRLIVENLSSRCSWQDLKDYMRQAGEVTYADAHKGRKNEGVIEFVSYSDMKRALEKLDGTEVNGRKIRLVEDKPGSRRRRSYSRSRSHSRSRSRSRHSRKSRSRSGSSKSSHSKSRSRSRSGSRSRSKSRSRSQSRSRSKKEKSRSPSKEKSRSRSHSAGKSRSKSKDQAEEKIQNNDNVGKPKSRSPSRHKSKSKSRSRSQERRVEEEKRGSVSRGRSQEKSLRQSRSRSRSKGGSRSRSRSRSKSKDKRKGRKRSREESRSRSRSRSKSERSRKRGSKRDSKAGSSKKKKKEDTDRSQSRSPSRSVSKEREHAKSESSQREGRGESENAGTNQETRSRSRSNSKSKPNLPSESRSRSKSASKTRSRSKSRSRSASRSPSRSRSRSHSRS [SRSF4] | 0.361 | -1.55 | -1 | -0.671 | 50.7 | 50.2
MRVAAATAAAGAGPAMAVWTRATKAGLVELLLRERWVRVVAELSGESLSLTGDAAAAELEPALGPAAAAFNGLPNGGGAGDSLPGSPSRGLGPPSPPAPPRGPAGEAGASPPVRRVRVVKQEAGGLGISIKGGRENRMPILISKIFPGLAADQSRALRLGDAILSVNGTDLRQATHDQAVQALKRAGKEVLLEVKFIREVTPYIKKPSLVSDLPWEGAAPQSPSFSGSEDSGSPKHQNSTKDRKIIPLKMCFAARNLSMPDLENRLIELHSPDSRNTLILRCKDTATAHSWFVAIHTNIMALLPQVLAELNAMLGATSTAGGSKEVKHIAWLAEQAKLDGGRQQWRPVLMAVTEKDLLLYDCMPWTRDAWASPCHSYPLVATRLVHSGSGCRSPSLGSDLTFATRTGSRQGIEMHLFRVETHRDLSSWTRILVQGCHAAAELIKEVSLGCMLNGQEVRLTIHYENGFTISRENGGSSSILYRYPFERLKMSADDGIRNLYLDFGGPEGELTMDLHSCPKPIVFVLHTFLSAKVTRMGLLV [SNTB2] | 0.0092 | 0.506 | 0.99 | -0.0262 | 49.4 | 50.3
CDK16 | -0.105 | -0.616 | 0.901 | 0.548 | 50.7 | 53.1
MAASAGAGAVIAAPDSRRWLWSVLAAALGLLTAGVSALEVYTPKEIFVANGTQGKLTCKFKSTSTTGGLTSVSWSFQPEGADTTVSFFHYSQGQVYLGNYPPFKDRISWAGDLDKKDASINIENMQFIHNGTYICDVKNPPDIVVQPGHIRLYVVEKENLPVFPVWVVVGIVTAVVLGLTLLISMILAVLYRRKNSKRDYTGCSTSESLSPVKQAPRKSPSDTEGLVKSLPSGSHQGPVIYAQLDHSGGHHSDKINKSESVVYADIRKN [MPZL1] | -0.289 | -1.73 | -3.55 | 0.534 | 57.8 | 58.1
MAEVKVKVQPPDADPVEIENRIIELCHQFPHGITDQVIQNEMPHIEAQQRAVAINRLLSMGQLDLLRSNTGLLYRIKDSQNAGKMKGSDNQEKLVYQIIEDAGNKGIWSRDIRYKSNLPLTEINKILKNLESKKLIKAVKSVAASKKKVYMLYNLQPDRSVTGGAWYSDQDFESEFVEVLNQQCFKFLQSKAETARESKQNPMIQRNSSFASSHEVWKYICELGISKVELSMEDIETILNTLIYDGKVEMTIIAAKEGTVGSVDGHMKLYRAVNPIIPPTGLVRAPCGLCPVFDDCHEGGEISPSNCIYMTEWLEF [POLR3F] | -0.0255 | -0.67 | -1.78 | 0.528 | 52.4 | 52.7
MDDREDLVYQAKLAEQAERYDEMVESMKKVAGMDVELTVEERNLLSVAYKNVIGARRASWRIISSIEQKEENKGGEDKLKMIREYRQMVETELKLICCDILDVLDKHLIPAANTGESKVFYYKMKGDYHRYLAEFATGNDRKEAAENSLVAYKAASDIAMTELPPTHPIRLGLALNFSVFYYEILNSPDRACRLAKAAFDDAIAELDTLSEESYKDSTLIMQLLRDNLTLWTSDMQGDGEEQNKEALQDVEDENQ [YWHAE] | 0.181 | -1.18 | -2.71 | 0.336 | 55.3 | 55.8

Source: the supplement of paper PMC5998384
